Assay results as given in the supplement of paper PMC10567573.

B1: RIPK4 (parent)
chain: VIDLFDEQGLSALHLAAQGRHAQT
B2: MFF (parent)
chain: MAEISRIQYEMEYTEGISQRMRVP

Variants of: B1
Assay: protein stability index of a GFP-peptide fusion (GPS, HEK-293T) (PSI 1-6); higher = more stable
Settings: c terminus: a fixed tail appended
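Note: lentivirally expressed fusions sorted by FACS into six bins by GFP to DsRed ratio, PSI derived from sequencing read proportions per bin multiplied by bin number.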

Protein stability index: each site, then its substitutions
F5: E 4.6 | D 4.18 | C 3.08 | A 4.21
I2: M 3.26 | H 4.22 | S 3.88 | N 3.79 | C 3.4 | F 2.42 | R 3.24 | E 4.42 | K 3.89 | Q 3.76 | Y 2.97 | P 3.66 | W 2.36 | V 3.67 | G 3.41 | T 3.64 | L 2.25 | D 4.21 | A 3.92
V1: I 2.43 | E 4.09 | Q 4.09 | K 3.92 | A 3.82 | P 3.72 | D 4.32 | F 1.88 | T 3.82 | S 3.62 | H 3.45 | L 2.7 | W 2.76 | R 3.41 | G 3.61 | Y 2.16 | N 3.7 | M 3.37 | C 2.88
L4: Y 3.52 | N 3.12 | Q 3.98 | T 3.79 | C 2.76 | P 3.73 | I 2.86 | F 2.66 | D 4.18 | H 3.81 | R 3.34 | A 3.72 | K 3.92 | W 2.85 | E 4.29 | V 3.26 | G 3.89 | M 3.11 | S 3.94
D3: C 2.25 | L 1.89 | H 1.68 | F 3.19 | V 1.58 | M 1.36 | Q 2.46 | G 2.58 | S 2.69 | W 2.95 | E 2.66 | R 2.34 | I 2.71 | Y 1.1 | K 2.31 | P 2.81 | A 1.79 | N 2.7 | T 2.17

Variants of: B2
Assay: as above
Settings: c terminus: a fixed tail appended

Protein stability index of substitutions, site by site:
G16: D 3.02 | M 1.88 | H 2.02 | K 2.71 | N 2.72 | Q 2.29 | V 2.07 | A 2.69 | C 2.02 | T 2.22 | S 2.2 | I 1.62 | R 1.9 | F 1.82 | W 2.04 | Y 1.48 | E 3.12 | P 3.13 | L 1.9
M21: A 3.17 | R 3.9 | L 2.26 | P 3.59 | D 3.41 | I 2.42 | C 2.32 | S 3.31 | G 3.62 | E 3.58 | F 2.38 | T 3.33 | Q 3.12 | K 3.73 | W 1.91 | N 3.32 | V 2.79 | H 3.6 | Y 2.9
T14: Q 3.08 | A 2.68 | I 1.86 | S 2.71 | R 2.35 | G 2.75 | D 4.16 | E 3.22 | H 2.5 | Y 2.04 | P 2.55 | M 2.2 | N 3.15 | K 3.28 | F 1.65 | W 1.97 | V 2.56 | L 2.07 | C 2.24
R22: P 2.56 | F 1.69 | G 2.46 | V 2.9 | Y 2.23 | C 2.4 | Q 2.43 | A 2.63 | W 2.01 | L 2.48 | S 2.44 | I 1.84 | K 2.8 | D 2.6 | M 2.38 | T 2.98 | E 2.86 | H 2.46 | N 2.36
S18: F 1.97 | R 2.27 | E 3.04 | V 1.74 | G 2.51 | M 1.94 | Y 1.92 | N 2.98 | H 2.13 | C 2.41 | P 2.65 | Q 2.62 | W 1.89 | I 1.66 | K 2.27 | T 2.6 | A 1.56 | L 1.82 | D 2.97
E15: Q 2.42 | P 1.96 | T 2.56 | N 3.14 | F 2.17 | Y 2.03 | D 2.64 | V 1.62 | M 1.75 | S 1.94 | C 1.46 | H 2.21 | I 2.11 | A 2.1 | W 1.77 | G 2.15 | R 2.45 | L 1.66 | K 2.43
E12: R 2.31 | K 2.64 | C 1.98 | N 2.4 | H 2.26 | D 2.53 | G 2.26 | A 1.82 | W 2.12 | M 1.84 | Y 1.76 | P 2.81 | Q 1.87 | F 1.34 | S 2.42 | V 1.76 | L 1.74 | I 1.28 | T 1.86
P24: T 3.42 | R 2.87 | M 2.21 | F 1.54 | Q 2.75 | I 1.91 | W 1.32 | Y 1.85 | K 2.98 | G 2.44 | V 1.84 | L 2.16 | H 2.02 | S 2.33 | A 2.16 | E 2.74 | C 1.93 | D 2.7 | N 2.56
I17: G 3.55 | R 3.67 | Q 3.76 | N 3.3 | M 2.35 | S 3.52 | V 2.96 | Y 2.62 | A 3.03 | T 3.4 | E 3.36 | F 1.99 | H 3.4 | C 2.92 | L 2.52 | W 2.25 | D 3.95 | K 3.18 | P 3.57
M11: R 3.19 | V 2.89 | W 1.99 | Q 3.35 | S 3.19 | T 3.15 | Y 2.67
Q19: S 2.56 | V 1.62 | L 1.41 | F 1.56 | Y 1.81 | N 3.06 | W 2.16 | E 2.54 | G 2.81 | R 2.59 | A 2.47 | T 2.66 | P 2.77 | I 1.89 | H 2.34 | K 2.44 | C 2.41 | M 2.65 | D 3.16
Y13: H 3.26 | C 3.22 | K 2.96 | S 3.79 | G 3.66 | W 2.77 | R 2.71 | A 2.73 | I 2.33 | F 2.41 | E 3.32 | Q 3.35 | V 3.12 | N 3.45 | T 3.46 | P 3.69 | D 3.95 | L 2.62 | M 2.67
R20: I 2.05 | W 1.67 | G 2.14 | M 2.13 | C 2.41 | Q 2.3 | E 3.1 | D 3.56 | T 2.66 | A 2.01 | F 2.08 | L 2.1 | N 2.46 | P 2.73 | K 2.72 | V 2.17 | S 2.27 | Y 1.58 | H 2.22
V23: L 2.46 | G 2.72 | W 1.7 | A 2.31 | I 2.07 | F 1.99 | D 3.23 | H 2.54 | C 2.87 | Q 2.99 | T 2.56 | Y 2.41 | P 2.54 | K 3.43 | E 2.73 | M 2.63 | S 2.51 | R 2.73 | N 2.61
